Reference: patent publication JP2023110925A (dated 2023)

Biological target: T1, アミロイドβ (antigen of the amyloid β ELISA) (UniProt P05067 672-713)
T1 construct: also called Aβ
Experiment: amyloid β ELISA, conditioned medium of transient transfection

T1 sequence (P05067 672-713): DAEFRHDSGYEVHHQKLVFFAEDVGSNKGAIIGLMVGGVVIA

B1: C2 HuVH AF バージョン3 + キメラC2カッパ鎖 (transient) (antibody, name in Kabat numbering, V domains shown)
VH: EVQLVESGGGLVQPGGSLRLSCAASGFTFSSYGMSWVRQAPGKGLELVASINSNGGSTYYPDSVKGRFTISRDNAKNSLYLQMNSLRAEDTAVYYCARGDYWGQGTTVTVSS
VL: DVVMTQTPLSLPVSLGDQASISCRSSQSLVYSNGDTYLHWYLQKPGQSPKLLIYKVSNRFSGVPDRFSGSGSGTDFTLKISRVEAEDLGVYFCSQSTHVPWTFGGGTKLEIK
notes: Transient expression
B1: no binding.
